{"source": "paper PMC11997328", "about": "“Structural and functional characterization of the extended-diKH domain from the antiviral endoribonuclease KHNYN”", "key": {"[1]": {"biological_target": "T1, KHNYN ex-diKH (human, UniProt O15037 8-200)", "T1 sequence (O15037 8-200)": "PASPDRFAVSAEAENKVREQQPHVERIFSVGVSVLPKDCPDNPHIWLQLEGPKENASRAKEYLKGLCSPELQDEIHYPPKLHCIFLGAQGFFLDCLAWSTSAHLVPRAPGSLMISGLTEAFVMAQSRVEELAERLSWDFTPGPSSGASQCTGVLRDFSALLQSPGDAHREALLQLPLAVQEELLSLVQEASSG", "assay": "BLI; up to 100 uM protein; BLI: 20 mM Tris pH 8.0, 50 mM NaCl, 0.5 mM TCEP, 0.01% Tween 20, 8 U/ml RNasin Plus, 25 °C; EMSA: 20 mM Tris pH 8.0, 50 mM NaCl, 0.5 mM TCEP, 5% glycerol, room", "settings": "protein: recombinant; tags: N-terminal StrepII tag removed by HRV 3C protease; label: 5'-biotin"}, "[2]": {"biological_target": "T2, ZAP RBD (human, UniProt Q7Z2W4 1-227)", "T2 sequence (Q7Z2W4 1-227)": "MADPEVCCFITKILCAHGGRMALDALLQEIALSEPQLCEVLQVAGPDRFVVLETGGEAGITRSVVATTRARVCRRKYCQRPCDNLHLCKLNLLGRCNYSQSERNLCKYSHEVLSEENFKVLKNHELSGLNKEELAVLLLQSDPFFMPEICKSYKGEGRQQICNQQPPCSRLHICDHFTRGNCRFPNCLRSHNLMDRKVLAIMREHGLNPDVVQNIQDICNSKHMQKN", "assay": "BLI; BLI: 20 mM Tris pH 8.0, 50 mM NaCl, 0.5 mM TCEP, 0.01% Tween 20, 8 U/ml RNasin Plus, 25 °C; EMSA: 20 mM Tris pH 8.0, 50 mM NaCl, 0.5 mM TCEP, 5% glycerol, room", "settings": "protein: recombinant; tags: N-terminal StrepII tag removed by HRV 3C protease; label: 5'-biotin"}, "[3]": {"biological_target": "T2, ZAP RBD", "assay": "EMSA; 2 uM protein, 0.2 uM RNA; BLI: 20 mM Tris pH 8.0, 50 mM NaCl, 0.5 mM TCEP, 0.01% Tween 20, 8 U/ml RNasin Plus, 25 °C; EMSA: 20 mM Tris pH 8.0, 50 mM NaCl, 0.5 mM TCEP, 5% glycerol, room", "settings": "protein: recombinant; tags: N-terminal StrepII tag removed by HRV 3C protease; label: 5'-FAM"}, "[4]": {"biological_target": "T1, KHNYN ex-diKH", "assay": "EMSA; 20 uM protein, 0.2 uM RNA; BLI: 20 mM Tris pH 8.0, 50 mM NaCl, 0.5 mM TCEP, 0.01% Tween 20, 8 U/ml RNasin Plus, 25 °C; EMSA: 20 mM Tris pH 8.0, 50 mM NaCl, 0.5 mM TCEP, 5% glycerol, room", "settings": "protein: recombinant; tags: N-terminal StrepII tag removed by HRV 3C protease; label: 5'-FAM"}, "[5]": {"biological_target": "IMP1(KH1-KH2) (UniProt Q9NZI8 194-369)", "sequence (Q9NZI8 194-369)": "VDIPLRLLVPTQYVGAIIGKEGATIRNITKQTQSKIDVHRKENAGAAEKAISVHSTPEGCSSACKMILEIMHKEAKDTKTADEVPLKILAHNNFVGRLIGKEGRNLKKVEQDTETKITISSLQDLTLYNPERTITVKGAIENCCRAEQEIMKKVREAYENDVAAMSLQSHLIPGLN", "assay": "BLI; low uM affinity; value not in material; BLI: 20 mM Tris pH 8.0, 50 mM NaCl, 0.5 mM TCEP, 0.01% Tween 20, 8 U/ml RNasin Plus, 25 °C; EMSA: 20 mM Tris pH 8.0, 50 mM NaCl, 0.5 mM TCEP, 5% glycerol, room", "settings": "protein: recombinant; label: 5'-biotin"}}, "data": [{"binder": "UAAUCGU (ssRNA)", "note": "[CpG RNA (Bi-UAAUCGU)]", "values": [{"measurement": "binding result", "setting": "[1]", "value": "no binding"}, {"measurement": "Kd", "setting": "[2]", "value": 30, "unit": "nM"}]}, {"binder": "UUCAGGU (ssRNA)", "note": "[non-CpG RNA (Bi-UUCAGGU)]", "values": [{"measurement": "binding result", "setting": "[1]", "value": "no binding"}, {"measurement": "Kd", "setting": "[2]", "value": 740, "unit": "nM"}]}, {"binder": "GCAACGACGACGCUAUUUUGCGCAUCAGACGCG (ssRNA)", "note": "[CpG-rich 33mer]", "values": [{"measurement": "binding result", "setting": "[3]", "value": "binds"}, {"measurement": "binding result", "setting": "[4]", "value": "no binding"}]}, {"binder": "GUUUCUUUUACUCUUUGUUACUUUUCAGUUAAU (ssRNA)", "note": "[U-rich 33mer]", "values": [{"measurement": "binding result", "setting": "[4]", "value": "no binding"}]}, {"binder": "GCAACCACCACUCUAUUUUGUGCAUCAGAUGCU (ssRNA)", "note": "[CpG-depleted 33mer]", "values": [{"measurement": "binding result", "setting": "[4]", "value": "no binding"}]}, {"binder": "GUAACUAAUACUCUAUUUUGUUAAUCAGAUAAU (ssRNA)", "note": "[AU-rich 33mer]", "values": [{"measurement": "binding result", "setting": "[4]", "value": "no binding"}]}, {"binder": "CUCCUCCCUACACUCCCCUCUCCCGCCGCCCCU (ssRNA)", "note": "[C-rich 33mer]", "values": [{"measurement": "binding result", "setting": "[4]", "value": "no binding"}]}, {"binder": "AUAACAAAUACACUAAAAUACAAAUCAGAAAAU (ssRNA)", "note": "[A-rich 33mer]", "values": [{"measurement": "binding result", "setting": "[4]", "value": "no binding"}]}, {"binder": "UUCUGUU (ssRNA)", "note": "[CUG RNA (Bi-UUCUGUU)]", "values": [{"measurement": "binding result", "setting": "[5]", "value": "binds"}, {"measurement": "binding result", "setting": "[1]", "value": "no binding"}]}]}
